Results reported in article PMC3078909.

Tests used:
Cys15 [1] = biological target: T1, Cys15 (UniProt position 15, AANWKCNGSES); assay: chemical modification (as in ref 24; this article says its new determinations were made 'under the same conditions'); conditions: free enzyme; cited from earlier work
Cys15 [2] = biological target: T1, Cys15; assay: chemical modification (MMTS inactivation followed by enzyme activity); conditions: not stated for the pKa determination (MMTS inactivation and activity assays were at 25°C), 100 mM TEA, 10 mM EDTA adjusted to the desired pH, free enzyme, 5 µg/mL
Cys14 [3] = assay: as above; conditions: not stated for the pKa determination (MMTS inactivation and activity assays were at 25°C); 100 mM TEA, 10 mM EDTA adjusted to the desired pH; free enzyme, 5 µg/mL, 80 µM MMTS
Cys15 [4] = biological target: Cys15 (UniProt position 14, AANWKCNGSQQ); assay: as above; conditions: not stated for the pKa determination (MMTS inactivation and activity assays were at 25°C); 100 mM TEA, 10 mM EDTA adjusted to the desired pH; free enzyme, 5 µg/mL, 80 µM MMTS
Cys14 [5] = biological target: T2, Cys14 (UniProt position 14, AANWKCNGSQQ); assay: chemical modification (as in ref 24; this article says its new determinations were made 'under the same conditions'); conditions: free enzyme; cited from earlier work
Cys14 [6] = biological target: T2, Cys14; assay: chemical modification (MMTS inactivation followed by enzyme activity); conditions: not stated for the pKa determination (MMTS inactivation and activity assays were at 25°C); 100 mM TEA, 10 mM EDTA adjusted to the desired pH; free enzyme, 5 µg/mL, 80 µM MMTS
[7] = 10 and 80 µM MMTS (mean of both)

For “Triosephosphate isomerase (TcTIM), wild type (Trypanosoma cruzi)”, the pKa (Cys15 [1]) is given as 9.28±0.07 and the pKa (Cys15 [2]; 10 µM MMTS) is given as 9.27±0.16.

“Chimera TcTIM 2,3, 5-8 (TcTIM with regions 1 and 4 of TbTIM) (Trypanosoma cruzi / Trypanosoma brucei chimera; regions 1 and 4 of TcTIM replaced by the TbTIM sequence (13 + 5 differing residues, not listed individually in the text))” gave a pKa (Cys14 [3]) of 10.61±0.06.

For “Chimera TcTIM 1-3 (regions 1-3 of TcTIM, regions 4-8 of TbTIM) (Trypanosoma cruzi / Trypanosoma brucei chimera; regions 4-8 of TcTIM replaced by the TbTIM sequence (individual substitutions not listed in the text))”, the pKa (Cys15 [2]; [7]) was 9.86±0.05.

Substance “Chimera TcTIM 1-3, 5-8 (TcTIM with region 4 of TbTIM) (Trypanosoma cruzi / Trypanosoma brucei chimera; region 4 of TcTIM replaced by the TbTIM sequence (5 substitutions, not listed individually in the text))” has a pKa (Cys15 [2]; [7]) of 9.59±0.06.

In the case of “Chimera TcTIM 1 (region 1 of TcTIM, regions 2-8 of TbTIM) (Trypanosoma cruzi / Trypanosoma brucei chimera; region 1 of TbTIM replaced by the TcTIM sequence (13 differing residues plus a one-residue N-terminal length difference; individual substitutions not listed in the text))”, the pKa (Cys15 [4]) is reported as 9.49±0.08.

For “Chimera TcTIM 1-4 (regions 1-4 of TcTIM, regions 5-8 of TbTIM) (Trypanosoma cruzi / Trypanosoma brucei chimera; regions 5-8 of TcTIM replaced by the TbTIM sequence (individual substitutions not listed in the text; Figure 1 is image only))”, the pKa (Cys15 [2]; 10 µM MMTS) was 9.17±0.12.

For “Triosephosphate isomerase (TbTIM), wild type (Trypanosoma brucei)”, the pKa (Cys14 [5]) is given as 10.08±0.03 and the pKa (Cys14 [6]) is given as 10.53±0.06.
